Patent US20230363418A1, “COMPOSITION FOR PREVENTING OR TREATING NEUROPSYCHOLOGIC DISEASE, COMPRISING MANF” (CEFO CO., LTD., priority 2020, published 2023)

What was measured:
[1] = test system: primary neural progenitor cells; experiment: GAD-GFP reporter plasmid assay of GABAergic nerve cell differentiation; format: cell-based, rat; conditions: MANF 30 ng/ml
Text: In order to efficiently investigate the differentiation of the primary neural progenitor cells into GABAergic nerve cells by MANF, a plasmid (GAD-GFP) capable of easily and effectively observing and detecting the differentiation into the GABAergic nerve cells with the naked eye by recombining green fluorescent protein (GFP), a fluorescent protein, into the promoter region of the human GAD gene was used. When the activity of the promoter is increased, the differentiation into GABAergic nerve cells is promoted, and whether or not the activity of the promoter is increased can be monitored by the expression level of a reporter gene operably linked thereto. Accordingly, it can be seen that the differentiation into GABAergic nerve cells is promoted when the expression level of the reporter gene is increased. In addition, it is possible to easily observe the differentiation of GABAergic nerve cells using a transcription factor that binds to the promoter.
Specifically, on day 3 after culturing the primary neural progenitor cells, the cells were separated from the dish with 0.05% trypsin and subcultured, and then all groups were transfected with GAD-GFP DNA. The cells were seeded in a 24-well plate and cultured in N2 medium containing 10 ng/mL bFGF for 24 hours. N2 medium for differentiation without bFGF was treated with MANF at a concentration of 30 ng/ml, and after 3 and 5 days, it was fixed and stained.

[2] = test system: IBO-administered memory impairment and autism model; experiment: Morris water maze experiment; format: in vivo, rat; conditions: MANF-AAV-hMSC transplanted into the hippocampus of IBO rats
Protocol: Memory impairment and autism models were prepared by administering IBO to the entorhinal cortex of the rats, wherein the IBO destroys granule cells of the dentate gyrus (DG) and pyramidal cells of the hippocampus, which receive nerve signals input from the entorhinal cortex. Specifically, the rats were anesthetized with equitensin (10% ethanol containing 350 mM pentobarbital sodium, 250 mM chloral hydrate, 85 mM MgSO and 40% propylene glycol). The incisor bar of a stereotaxic device (Stoelting Co., U.S.A.) was placed 3.4 mm below the interaural line, and the injection needle angle was fixed at […] right from the center of the sagittal plane. […]
The same number of rats as in each group of Example 6-1 was subjected to the Morris water maze experiment in a round, rust-free and inner surface-white swimming pool (diameter 160 cm; height 60 cm). […] The final experiment measured the time the rat stayed where the platform was for 60 seconds after removing the platform (probe trial). Swimming time and training length were tracked and recorded using a video camera. […] The captured video pictures were analyzed with a video tracking system (Ethovision water maze program, Noldus Information Technology, Wogeningen, The Netherlands). The analyzed information included the time of swimming in the target quadrant, and the number of crossings the imaginary platform to find the removed platform.

B1: MANF: one of 16 or more growth factors secreted into nerve stem cells by cerebrovascular cells; amino acid sequence of SEQ ID NO: 1 (protein)
chain: MRRMWATQGLAVALALSVLPGSRALRPGDCEVCISYLGRFYQDLKDRDVTFSPATIENELIKFCREARGKENRLCYYIGATDDAATKIINEVSKPLAHHIPVEKICEKLKKKDSQICELKYDKQIDLSTVDLKKLRVKELKKILDDWGETCKGCAEKSDYIRKINELMPKYAPKAASARTDL
modifications: MANF
number of NeuN-stained cells in MANF-treated group vs Con group ([1]; 3 and 5 days): no greater increase | GFP-positive cells (GAD promoter-GFP, GABAergic differentiation) ([1]; 3 and 5 days, vs Con group): increased compared to the Con group | number of NeuN-stained cells ([1]; after 3 days of differentiation): 10% | number of NeuN-stained cells ([1]; after 5 days of differentiation): 50% | memory ability in Morris water maze test [2]: memory improvement
